Two molecules from article PMC2817471 can be followed below.

Like-named read-outs stand apart in the source and are kept apart here.

Data set [1] concerns the target T1, XPD (Sulfolobus acidocaldarius, UniProt Q4JC68 1-551).
T1 sequence: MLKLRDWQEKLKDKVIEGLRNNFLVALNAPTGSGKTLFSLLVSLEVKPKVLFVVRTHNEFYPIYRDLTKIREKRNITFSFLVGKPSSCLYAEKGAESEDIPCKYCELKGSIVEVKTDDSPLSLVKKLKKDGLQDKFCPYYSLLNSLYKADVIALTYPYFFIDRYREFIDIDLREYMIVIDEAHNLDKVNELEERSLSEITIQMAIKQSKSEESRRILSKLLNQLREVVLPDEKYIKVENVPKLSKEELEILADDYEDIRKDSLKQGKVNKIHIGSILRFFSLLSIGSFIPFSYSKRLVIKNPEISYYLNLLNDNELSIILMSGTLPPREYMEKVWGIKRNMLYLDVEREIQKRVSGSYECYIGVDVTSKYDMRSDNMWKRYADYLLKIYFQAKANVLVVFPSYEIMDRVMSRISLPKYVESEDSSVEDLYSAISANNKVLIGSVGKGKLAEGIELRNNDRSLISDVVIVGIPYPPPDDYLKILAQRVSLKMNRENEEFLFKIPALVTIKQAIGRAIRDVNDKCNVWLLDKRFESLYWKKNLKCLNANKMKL
Nature of the data set: ITC. On the technique in general: Isothermal titration calorimetry measures the heat released or taken up as one component is titrated into another.

Data set [2] has as its target T1, XPD. Nature of the data set: ITC. The source holds these as a separate data set.

B1: ITC-T8 (ssDNA)
DNA: TTTTTTTT
With B1, the Kd (in general, the equilibrium constant for the complex coming apart) in the data set with XPD [1] was over 40 µM.

B2: ITC-T12 (ssDNA)
DNA: TTTTTTTTTTTT
As for B2, in the data set with XPD [2], binding was put at a Kd of 5.6 µM.
